According to article PMC10662374, “Structures of the interleukin 11 signalling complex reveal gp130 dynamics and the inhibitory mechanism of a cytokine variant” (Nature Communications, 2023):
Residue numbers refer to the chain shown, from its start.

T1: gp130EC (human, UniProt P40189 23-619, N-linked glycans (N21, N61, N135 seen in the structures))
T1 construct: Secreted with a honeybee-melittin signal peptide; D5-D6 are not in the deposited model 8DPT; also called complete extracellular domains of gp130; D1-D6 domains of gp130; not shown: His8, N-terminal, cleaved
T1 sequence (looked up): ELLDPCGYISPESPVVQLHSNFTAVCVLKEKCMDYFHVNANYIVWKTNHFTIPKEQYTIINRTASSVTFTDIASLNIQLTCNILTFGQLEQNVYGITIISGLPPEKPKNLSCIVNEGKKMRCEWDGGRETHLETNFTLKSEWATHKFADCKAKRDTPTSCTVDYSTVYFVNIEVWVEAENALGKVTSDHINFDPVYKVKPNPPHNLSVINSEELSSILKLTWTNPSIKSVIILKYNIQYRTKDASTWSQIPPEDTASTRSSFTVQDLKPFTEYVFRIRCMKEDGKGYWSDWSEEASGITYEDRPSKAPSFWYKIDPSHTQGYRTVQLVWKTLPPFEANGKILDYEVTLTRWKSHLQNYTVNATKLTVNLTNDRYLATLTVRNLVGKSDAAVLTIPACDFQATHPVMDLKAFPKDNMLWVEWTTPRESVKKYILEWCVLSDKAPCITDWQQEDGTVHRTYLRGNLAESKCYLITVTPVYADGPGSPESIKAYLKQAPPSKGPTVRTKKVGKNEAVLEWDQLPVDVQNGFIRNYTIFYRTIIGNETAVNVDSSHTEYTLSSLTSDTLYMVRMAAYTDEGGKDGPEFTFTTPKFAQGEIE

T2: IL-11_(Δ10/Mutein)/IL-11Rα_(D1-D3) binary complex (human, UniProt P20809 32-199; Q14626 23-319, W147A | ^58AMSAG^62 to ^58PAIDY^62)
T2 construct: IL-11, human, IL-11Δ10 with W147A and 58-62 AMSAG to PAIDY, as m4; numbers count on: the mature protein; IL-11Rα, human, D1-D3, as m8; m4 with m8; source: formed from the purified proteins; in ITC by titrating the cytokine into IL-11Rα; not shown: His6, N-terminal, cleaved; His8, N-terminal, cleaved
T2 sequence 1: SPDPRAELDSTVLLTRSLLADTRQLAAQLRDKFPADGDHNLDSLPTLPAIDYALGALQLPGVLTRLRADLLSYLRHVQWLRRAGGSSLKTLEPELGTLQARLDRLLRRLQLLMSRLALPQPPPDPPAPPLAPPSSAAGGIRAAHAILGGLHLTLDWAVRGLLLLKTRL
T2 sequence 2: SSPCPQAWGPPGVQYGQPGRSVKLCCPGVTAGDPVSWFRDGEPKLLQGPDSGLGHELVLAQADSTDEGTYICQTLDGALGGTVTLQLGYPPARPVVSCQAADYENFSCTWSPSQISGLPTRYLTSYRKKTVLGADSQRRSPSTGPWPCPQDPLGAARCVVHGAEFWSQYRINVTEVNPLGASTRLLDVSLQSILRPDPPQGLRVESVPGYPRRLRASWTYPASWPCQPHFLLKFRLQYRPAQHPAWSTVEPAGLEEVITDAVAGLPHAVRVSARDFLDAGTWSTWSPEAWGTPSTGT

B1: IL-11Δ10/IL-11Rα_(D1-D3)/gp130EC trimer (complex, human)
chain 1: T2 sequence 1 with P48A, A49M, I50S, D51A, Y52G, A137W
chain 2: T2 sequence 2
chain 3: T1 sequence (looked up)
notes: IL-11, human, IL-11Δ10, as m1; numbers count on: the mature protein; IL-11Rα, human, D1-D3, as m8; gp130, human, D1-D6, as m12; Two such trimers associate to the hexamer; also called one half of the gp130EC complex; source: equimolar mix of the purified proteins; not shown: His6, N-terminal, cleaved; His8, N-terminal, cleaved; copies: 1 + 1 + 1
B2: IL-11Δ10/IL-11Rα_(D1-D3) binary complex (complex, human)
chain 1: T2 sequence 1 with P48A, A49M, I50S, D51A, Y52G, A137W
chain 2: T2 sequence 2
notes: IL-11, human, IL-11Δ10, as m1; numbers count on: the mature protein; IL-11Rα, human, D1-D3, as m8; m1 with m8; also called IL-11Rα_(D1-D3)/IL-11Δ10 binary complex; binary IL-11/IL-11Rα complex; source: formed from the purified proteins (IL-11Δ10 from E. coli, IL-11Rα_(D1-D3) from Sf21); in ITC by titrating the cytokine into IL-11Rα; not shown: His6, N-terminal, cleaved; His8, N-terminal, cleaved; …
B3: IL-11Δ10 (ligand, human)
chain: T2 sequence 1 with P48A, A49M, I50S, D51A, Y52G, A137W
notes: numbers count on: the mature protein; also called N-terminally truncated form of IL-11; WT IL-11Δ10; not shown: His6, N-terminal, cleaved
B4: gp130_(D1-D3) (receptor, human)
chain: GELLDPCGYISPESPVVQLHSNFTAVCVLKEKCMDYFHVNANYIVWKTNHFTIPKEQYTIINRTASSVTFTDIASLNIQLTCNILTFGQLEQNVYGITIISGLPPEKPKNLSCIVNEGKKMRCEWDGGRETHLETNFTLKSEWATHKFADCKAKRDTPTSCTVDYSTVYFVNIEVWVEAENALGKVTSDHINFDPVYKVKPNPPHNLSVINSEELSSILKLTWTNPSIKSVIILKYNIQYRTKDASTWSQIPPEDTASTRSSFTVQDLKPFTEYVFRIRCMKEDGKGYWSDWSEEASGITYEDR
modifications: N-linked glycans (N21, N61, N135 seen in the structures)
notes: glycoprotein 130 (gp130), human, domains D1-D3; Secreted with a honeybee-melittin signal peptide; not shown: His8, N-terminal, cleaved

Legend:
[1] = molecular target: the molecule itself; assay: AUC; sedimentation velocity, 50,000 rpm, 20 °C, c(s) model with floating frictional ratio (SEDFIT)
gp130EC [2] = molecular target: T1, gp130EC; assay: ITC; gp130 in the syringe titrated against the cytokine/IL-11Rα_(D1-D3) complex formed in the cell, 288 K, TBS pH 8.5, 1:1 interaction model, n = 3; details: both partners purified
gp130EC [3] = molecular target: T1, gp130EC; assay: cryo-EM structure; IL-11Δ10/IL-11Rα_(D1-D3)/gp130EC complex, 1.5 mg/mL, with 1–2 mM n-dodecyl β-D-maltoside, not size exclusion purified; C2 symmetry, 3.8 Å; details: both partners purified
[4] = molecular target: IL-11_(Δ10/PAIDY)/IL-11Rα_(D1-D3) binary complex (human) (UniProt P20809); assay: ITC; gp130 in the syringe titrated against the cytokine/IL-11Rα_(D1-D3) complex formed in the cell, 288 K, TBS pH 8.5, 1:1 interaction model, n = 3
[5] = molecular target: B2; assay: as above; details: both partners purified
[6] = molecular target: T2, IL-11_(Δ10/Mutein)/IL-11Rα_(D1-D3) …; assay: as above; details: both partners purified

Binder: B1
binding result [1]: binds

Binder: B2
Kd (gp130EC [2]): 4 nM

Binder: B3
binding result (gp130EC [3]): binds

Binder: B4
Kd [4]: 20 nM
Kd [5]: 3 nM
dH [5]: -8.13 kcal/mol
Kd [6]: 55 nM
